According to PMC6624300, “Structure-based mechanism for activation of the AAA+ GTPase McrB by the endonuclease McrC” (Nature Communications, 2019):

B1: McrC endonuclease (enzyme, Escherichia coli, UniProt P15006 1-348, looked up)
chain: MEQPVIPVRNIYYMLTYAWGYLQEIKQANLEAIPGNNLLDILGYVLNKGVLQLSRRGLELDYNPNTEIIPGIKGRIEFAKTIRGFHLNHGKTVSTFDMLNEDTLANRIIKSTLAILIKHEKLNSTIRDEARSLYRKLPGISTLHLTPQHFSYLNGGKNTRYYKFVISVCKFIVNNSIPGQNKGHYRFYDFERNEKEMSLLYQKFLYEFCRRELTSANTTRSYLKWDASSISDQSLNLLPRMETDITIRSSEKILIVDAKYYKSIFSRRMGTEKFHSQNLYQLMNYLWSLKPENGENIGGLLIYPHVDTAVKHRYKINGFDIGLCTVNLGQEWPCIHQELLDIFDEYLK
notes: McrC, endonuclease of the McrBC restriction system, Escherichia coli; Dimer in the complex; Chain N of PDB 6HZ4 holds only residues 193-343 of the second copy; source: E. coli BL21(AI), purified (Ni-NTA, MonoS)

Experiments:
[1] = biological target: MantGMPPNP (GNP); test: Mant-nucleotide fluorescence time trace (MantGMPPNP + buffer, then protein added); settings: protein added at about 160 s, signal before protein est. 26000, parent: est. 40000
[2] = biological target: the molecule itself; test: cryo-EM structure; McrBΔN and McrC mixed 4:1 with GTP and MgCl2, complex purified by SEC; grids with 4.0 mg/ml McrBΔNC in 10 mM Tris-HCl pH 7.4, 2.0 mM GNP, 0.10 M NaCl, 5.0 mM MgCl2
[3] = biological target: B1; test: as above; settings: both partners purified
[4] = value is the mean of the trace after addition, read off a plot

## McrB (wild type) (from UniProt P15005) E298A
[1]; [4]
  response: 39000 CPS/µAmps

## McrB (wild type) (from UniProt P15005) R349A
[1]; trace hidden under R348A, which the legend says it overlaps, read off a …
  response: 28000 CPS/µAmps

## McrB (wild type) (from UniProt P15005) R348A
[1]; [4]
  response: 28000 CPS/µAmps

## B1
[2]
  stoichiometry N: 2

B2: McrBΔN (McrB construct lacking the first 161 residues; AAA+ domain of McrB) (domain or fragment, Escherichia coli, UniProt P15005 162-459, looked up)
chain: MSKTESYCLEDALNDLFIPETTIETILKRLTIKKNIILQGPPGVGKTFVARRLAYLLTGEKAPQRVNMVQFHQSYSYEDFIQGYRPNGVGFRRKDGIFYNFCQQAKEQPEKKYIFIIDEINRANLSKVFGEVMMLMEHDKRGENWSVPLTYSENDEERFYVPENVYIIGLMNTADRSLAVVDYALRRRFSFIDIEPGFDTPQFRNFLLNKKAEPSFVESLCQKMNELNQEISKEATILGKGFRIGHSYFCCGLEDGTSPDTQWLNEIVMTDIAPLLEEYFFDDPYKQQKWTNKLLGDS
notes: McrB, AAA+ GTPase of the McrBC restriction system, Escherichia coli; Forms a hexameric ring in the structure; two rings per tetradecamer; also called McrB∆N; source: E. coli BL21(AI), purified (Ni-NTA, MonoQ, Superdex200)
[3]
  binding result: binds
